Target: GST-fusion of the truncated CD2 tail (CD2221-282) (human) (UniProt P06729)
Test: NMR titration, estimate from line broadening in fast exchange

GST-fusion of the truncated CD2 tail (CD2221-282) (human), sequence (P06729 245-306): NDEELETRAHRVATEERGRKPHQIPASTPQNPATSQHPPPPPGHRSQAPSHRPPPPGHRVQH

koff: > 1000 s⁻¹
Substance: purified binding domain of CD2BP2 comprising amino acids 256-341 (His-tagged, NMR sample)

Source: patent US20020127657A1
